The values below come from patent publication US20190203227A1 (WILLIAM MARSH RICE UNIVERSITY, published 2019).

The experiment concerns the target T1, wild-type recombinant adeno-associated virus serotype 2 (adeno-associated virus serotype 2, UniProt P03135 1-735; P03135 139-735; P03135 203-735).
T1 construct: Assembled virus capsid; Control virus without PIF6; also called wtAAV2; wtAAV
Description: Ni2+ column capture with immobilised PhyB, qPCR of viral genomes, far-red (730 nm) light. On the technique in general: In qPCR the cycle at which signal appears reflects the starting amount.

B1: PhyB651-His6 (other)
chain: MVSGVGGSGGGRGGGRGGEEEPSSSHTPNNRRGGEQAQSSGTKSLRPRSNTESMSKAIQQYTVDARLHAVFEQSGESGKSFDYSQSLKTTTYGSSVPEQQITAYLSRIQRGGYIQPFGCMIAVDESSFRIIGYSENAREMLGIMPQSVPTLEKPEILAMGTDVRSLFTSSSSILLERAFVAREITLLNPVWIHSKNTGKPFYAILHRIDVGVVIDLEPARTEDPALSIAGAVQSQKLAVRAISQLQALPGGDIKLLCDTVVESVRDLTGYDRVMVYKFHEDEHGEVVAESKRDDLEPYIGLHYPATDIPQASRFLFKQNRVRMIVDCNATPVLVVQDDRLTQSMCLVGSTLRAPHGCHSQYMANMGSIASLAMAVIINGNEDDGSNVASGRSSMRLWGLVVCHHTSSRCIPFPLRYACEFLMQAFGLQLNMELQLALQMSEKRVLRTQTLLCDMLLRDSPAGIVTQSPSIMDLVKCDGAAFLYHGKYYPLGVAPSEVQIKDVVEWLLANHADSTGLSTDSLGDAGYPGAAALGDAVCGMAVAYITKRDFLFWFRSHTAKEIKWGGAKHHPEDKDDGQRMHPRSSFQAFLEVVKSRSQPWETAEMDAIHSLQLILRDSFKESEAAMNSKVVDGVVQPCRDMAGEQGIDELGAHHHHHH
modifications: phycocyanobilin (PCB) chromophore bound after incubation with 5 uM PCB (residue not stated)
Take B1: the binding result is given as “no binding”.

B2: PhyB917-His6 (other)
chain: MGASGVSGVGGSGGGRGGGRGGEEEPSSSHTPNNRRGGEQAQSSGTKSLRPRSNTESMSKAIQQYTVDARLHAVFEQSGESGKSFDYSQSLKTTTYGSSVPEQQITAYLSRIQRGGYIQPFGCMIAVDESSFRIIGYSENAREMLGIMPQSVPTLEKPEILAMGTDVRSLFTSSSSILLERAFVAREITLLNPVWIHSKNTGKPFYAILHRIDVGVVIDLEPARTEDPALSIAGAVQSQKLAVRAISQLQALPGGDIKLLCDTVVESVRDLTGYDRVMVYKFHEDEHGEVVAESKRDDLEPYIGLHYPATDIPQASRFLFKQNRVRMIVDCNATPVLVVQDDRLTQSMCLVGSTLRAPHGCHSQYMANMGSIASLAMAVIINGNEDDGSNVASGRSSMRLWGLVVCHHTSSRCIPFPLRYACEFLMQAFGLQLNMELQLALQMSEKRVLRTQTLLCDMLLRDSPAGIVTQSPSIMDLVKCDGAAFLYHGKYYPLGVAPSEVQIKDVVEWLLANHADSTGLSTDSLGDAGYPGAAALGDAVCGMAVAYITKRDFLFWFRSHTAKEIKWGGAKHHPEDKDDGQRMHPRSSFQAFLEVVKSRSQPWETAEMDAIHSLQLILRDSFKESEAAMNSKVVDGVVQPCRDMAGEQGIDELGAVAREMVRLIETATVPIFAVDAGGCINGWNAKIAELTGLSVEEAMGKSLVSDLIYKENEATVNKLLSRALRGDEEKNVEVKLKTFSPELQGKAVFVVVNACSSKDYLNNIVGVCFVGQDVTSQKIVMDKFINIQGDYKAIVHSPNPLIPPIFAADENTCCLEWNMAMEKLTGWSRSEVIGKMIVGEVFGSCCMLKGPDALTKFMIVLHNAIGGQDTDKFPFPFFDRNGKFVQALLTANKRVSLEGKVIGAFCFLQIPSPELQQALAVGGSHHHHHH
modifications: phycocyanobilin (PCB) chromophore bound after incubation with 5 uM PCB (residue not stated)
notes: Light-switchable phytochrome B fragment, immobilised on a Ni2+ column
In the case of B2, the binding result is given as “no binding”.
